From the supplement of paper PMC9170038

Test system: MS2 coat protein
Assay: apparent KD of MS2 coat protein; designed switch direction (-1 OFF switch, 1 ON switch): -1; higher = weaker reporter binding
How it was run: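 Stalled E. coli RNA polymerase transcribed designed RNA switches on Illumina chips, which were then titrated with SNAP-549-labelled MS2 coat protein, doubling from 0.7 or 1.5 nM to 3 µM. Steps lasted from 0.8–1.5 h at the lowest concentration to 10–20 min at the highest. The apparent KD is each design's median over clusters of curve-fitted normalised fluorescence.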

[1] = input ligand: microRNA oligo, concentration not stated
[2] = Eterna round: R95, input ligand: FMN 200 uM
[3] = Eterna round: R95, input ligand: microRNA oligo, concentration not stated
[4] = Eterna round: R95, input ligand: none

Sequence | apparent KD of MS2 coat protein (input ligand: FMN 200 uM) [nM] | apparent KD of MS2 coat protein (input ligand: none) [nM] | other results
GCUUGUAGAGGAUAUACAAGGGCCCGAGCGGCGAGAGCCGCACAUGAGGAUCACCCAUGUAGAAGGCUACUAUA [JL-ex2-4.21 ViennaUCT mod] (Eterna round: R97, puzzle: Exclusion 2) | 201 | 237 | 
UCCAAGUUUGUAGGAUAUACUCUCCUUUGGAGAGUAGAAGGACAUGAGGAUCACCCAUGUUGUAUAAAUUUGGGAUGUUCCUCG [random3] (Eterna round: R96, puzzle: Exclusion NG 1) | 122 | 91.8 | apparent KD of MS2 coat protein [1]: 51.3 nM
GGUACUAACAGCUGACUGUUAGUACUGUAGGUUUGUGUUACAUGAGGAUCACCCAUGUCCUCAUAGGCUCGUCUUGU [JL-sv3-2.24 mat747 mod] (puzzle: Sensor v3, turn-off variant 2) |  |  | apparent KD of MS2 coat protein [2]: 281 nM; apparent KD of MS2 coat protein [3]: 91.5 nM; apparent KD of MS2 coat protein [4]: 739 nM
AGCUAGUCAGGAUAUUCUAAAUAUUACAUGAGGAUCACCCAUGUGAAUGGACAAGGGUGUGAAGAAGGGACUAGCG [Omei Ex5 A12] (Eterna round: R97, puzzle: Exclusion 5) | 262 | 959 | 
AUUCAACAUGAGGAUCACCCAUGUGAGGAUAUGCGAGUGCAGACUUCGGUUUGAUAGAGCAGAAGGCGCAGGUA [EX1 #13] (Eterna round: R97, puzzle: Exclusion 1) | 69.6 | 30.8 | 
UUUUUAUAUGAAGGAUAUACUUAACAUGAGGAUCACCCAUGUGGUGUUGUGAGUGAGUGAGUUUAGUAGAAGGUCAAGUAUUUU [JMF's solution 8] (Eterna round: R96, puzzle: Exclusion NG 2) | 431 | 431 | apparent KD of MS2 coat protein [1]: 265 nM
CGGUGUAGAGGAUAUACGUGAAUAUAAGAACAUAAUAAUUAACAUGAGGAUCACCCAUGUAGAAGGCUAUAGCG [JR_Ex2_Sub081] (Eterna round: R97, puzzle: Exclusion 2) | 34.3 | 16.7 | 
UAUUAGCAAGUAAGGUCCCACAUGAGGAUCACCCAUGUGCUCGUCUCCUCAGGUACGGAGCGGAAACUCCCGAUAUG [Sensor-V1 #92] (Eterna round: R97, puzzle: Sensor, turn-off variant 1) | 121 | 102 | 
CUUUUGUGAGGAUAUUAGUAGUAAAAAAAUAAAAUUACUACUGAGAAGGCACAUGAGGAUCACCCAUGUUCCUC [salish99_ex4_r3_036] (puzzle: Exclusion 4) |  |  | apparent KD of MS2 coat protein [3]: 33.2 nM
AAUAACAAGCCGAUCCUUCACAUGAGGAUCACCCAUGUGUUCGUCUUGUAAAGUACUAUCACGAAAGUGAUAGUACA (Eterna round: R97, puzzle: Sensor, turn-off variant 1) | 18 | 19.1 | 
UCCUCACAUGAGGAUCACCCAUGUUAGGAUAUUUAAUAGCGCGAAAGACAGUUCUGUAAGAGAAGGAACUGGGC [Edarti] (Eterna round: R97, puzzle: Exclusion 1) | 14.6 | 15 | 
GUGUAACUACACGGGCUCAACAUGAGGAUCACCCAUGUCAUACACGCAAGCUUUUUGCUUGUCUUAUCUGUCCGUGU [Cegeesre] (puzzle: Sensor v3, turn-off variant 1) |  |  | apparent KD of MS2 coat protein [2]: 12.4 nM; apparent KD of MS2 coat protein [3]: 12.2 nM; apparent KD of MS2 coat protein [4]: 11.5 nM
UACAUGAGGAUCACCCAUGUUUUGUCGUGUAUGGUAUUUAUCUAGGAUAUCAUUUUAUCUAGUUAUGAGAAGGAGAAUAUUAAU [JMF's solution 89] (Eterna round: R96, puzzle: Exclusion NG 3) |  |  | apparent KD of MS2 coat protein [1]: 26.6 nM
UGAGCUUACGCAGGAUAUGAGGAUCACCCAUAGAAGGAUAUCGAAAGAGAAGGUCUGAGGAUUACCCAGAAGGGCGUGGGCUCU [pwkr exNG2 2xF5 2xFMN.11] (Eterna round: R96, puzzle: Exclusion NG 2) | 1290 | 131 | apparent KD of MS2 coat protein [1]: 125 nM
GUCACAUGGACAUAGGAUCACAUGAGGAUCACCCAUGUGACUAACAAGCUUUUUGCUCGUCUUAUGUCUAUGUGAAG [Stov1/16-A3] (Eterna round: R97, puzzle: Sensor, turn-off variant 1) | 14.4 | 12.4 | 
UCCUCACAUGAGGAUCACCCAUGUUAGGAUAUCUUAUAGAGCUUGAGACAGUUCUUUAAGAGAAGGAACUGGGC [Exclusion 1 (MOD2.2 of Edarti)] (Eterna round: R97, puzzle: Exclusion 1) | 120 | 115 | 
GUCAUCAAACAUGGGAUAAACAUGAGGAUCACCCAUGUUUACAAGUUUUUUGCUCGUCUUAUAAUAAGUUUGAUGAC [Antenna 8 - Jieux - Sensor, turn-off variant 1] (Eterna round: R97, puzzle: Sensor, turn-off variant 1) | 14 | 15 | 
GAAAGAGUUCAGGAUAUCAGAGUCCAGCGACACUGAGAAGGGAAAACAUGAGGAUCACCCAUGUGGUCCUAAGC [Eternabot (L2) Solution 80] (Eterna round: R97, puzzle: Exclusion 6) | 348 | 105 | 

Sequence | apparent KD of MS2 coat protein (input ligand: FMN 200 uM) [nM] | apparent KD of MS2 coat protein (input ligand: none) [nM] | other results
UUUUAGACAGGAUAUACAUUUUUUUAUUUAUUUAUAAUAUUACAUGAGGAUCACCCAUGUAGAAGGGUCAUUUU [My Design] (puzzle: Exclusion 2) |  |  | apparent KD of MS2 coat protein [3]: 37.1 nM
GGGUGACAGUUAGGAUAUCUUAGCACGCCGUAGAGAGAAGGGACAUGAGGAUCACCCAUGUUGUAGUGCCUCCAGCACUGCUAG [Esrasoce] (Eterna round: R96, puzzle: Exclusion NG 1) | 105 | 66.4 | apparent KD of MS2 coat protein [1]: 34 nM
CGGCAUGUCUGAGGAUAUCUGCACGUUUAGUGCAGAGAAGGCAGAACAUGAGGAUCACCCAUGUAGAUCAUUAACCGAUUAAUU [ENG1/7-A2] (Eterna round: R96, puzzle: Exclusion NG 1) |  |  | apparent KD of MS2 coat protein [1]: 182 nM
AGCGAGGUAGGAUAUACAUGAGGAUCACCCAUGUGCUUGUAUGGCGUGGAACAUCGUAGUAGAAGGGCCGCGCC [EX3 #76] (Eterna round: R97, puzzle: Exclusion 3) | 21.9 | 20.9 | 
CUUAGACAUGAGGAUCACCCAUGUGAGGAUAUGAUGCGAUCGUCGAAAGACGAUAGCAUCAGAAGGUACAAAUG [Fiskers Ex 1 - 21] (puzzle: Exclusion 1) |  |  | apparent KD of MS2 coat protein [3]: 90.5 nM
CUCCGCGGAGGAUAUGCAGCCUUCGACAUGAGGAUCACCCAUGUACAAGAUCCCUUGUCGGCAGAAGGCCGGGAGA [Usena] (Eterna round: R97, puzzle: Exclusion 5) | 114 | 448 | 
CCGAAUAAGUAGGAUAUCGUAUCGGAAACGAUACGAGAAGGGCUAACAUGAGGAUCACCCAUGUUCCUUAACGG [Fiskers Ex 6 - 16] (puzzle: Exclusion 6) |  |  | apparent KD of MS2 coat protein [2]: 20 nM; apparent KD of MS2 coat protein [3]: 16.4 nM; apparent KD of MS2 coat protein [4]: 18.7 nM
UUAUUAUAUGAAGGAUAUACUUAACAUGAGGAUCACCCAUGUGGUGUUGUGAGUGAGUGAGUUUAGUAGAAGGUCAAUUAUUUU [JMF's solution 28] (Eterna round: R96, puzzle: Exclusion NG 2) | 833 | 335 | apparent KD of MS2 coat protein [1]: 287 nM
AACAUGGUAAAGGAUAUUGUCGCAGAAUGCGAUCAAGAAGGUUACACAUGAGGAUCACCCAUGUGGAAUCCAUC [Eternabot (Original) Solution 24] (Eterna round: R97, puzzle: Exclusion 6) | 63.2 | 17.2 | 
AAGAAUGAAGGAUAUACAUGAGGAUCACCCAUGUAAAAAAAAUUUUUUAGUUUUUCAUGUAGAAGGUCAAGAAG [JR_Exclusion3_Sub001] (puzzle: Exclusion 3) |  |  | apparent KD of MS2 coat protein [2]: 47.9 nM; apparent KD of MS2 coat protein [3]: 41.8 nM; apparent KD of MS2 coat protein [4]: 43.6 nM
GAAGAAGAGAGAAUAGAAAACAUGAGGAUCACCCAUGUGAGAAGAUGAGGGUGUAAUAGGCUUUUUGCUCGUCUUAU (puzzle: Sensor v3, turn-off variant 1) |  |  | apparent KD of MS2 coat protein [2]: 42.7 nM; apparent KD of MS2 coat protein [3]: 94.4 nM; apparent KD of MS2 coat protein [4]: 56 nM
AUGUUACAUGAGGAUCACCCAUGUCAGGAUAUCUAUCAUAGCAUAGAAAUAUGCGGGUAGAGAAGGGACUAUCC [ChP Ext 10-04-2015 #5] (puzzle: Exclusion 1) |  |  | apparent KD of MS2 coat protein [3]: 14.7 nM
GCCGAUUAAGUCAGGAUAUACCUAUGGAUACAUAGGUAGAAGGGACAUGAGGAUCACCCAUGUUCCUCUACGGC [Fiskers BMX 4 - 16] (puzzle: Brourd's mod of Exclusion 4) |  |  | apparent KD of MS2 coat protein [3]: 13.6 nM
GGGCUCGGUCUUCCGGCUGGGUCCACAUGAGGAUCACCCAUGUAGGAUAUCCCGGCUGCCGGCCGGGAGAAGGGCGUGUGUUUC [-39.8, -36.9 kcal, 14% A] (Eterna round: R96, puzzle: Exclusion NG 3) | 22.6 | 21.5 | apparent KD of MS2 coat protein [1]: 13.3 nM
UAUAUAUAGUAAGGAUAUGUAUAUAUUUUAUUAACAGAAGGUACUGACAUGAGGAUCACCCAUGUUUUAGUGUGGGCAUGUAGA [JMF's solution 69] (Eterna round: R96, puzzle: Exclusion NG 1) |  |  | apparent KD of MS2 coat protein [1]: 55.2 nM
UUGUUGUGUGUAGGAUAUGCAUAUUAUUAUUAUGCAGAAGGACAUGAGGAUCACCCAUGUGUAUUAUUAUUAUAUAUUAUAUAU [Title] (Eterna round: R96, puzzle: Exclusion NG 1) |  |  | apparent KD of MS2 coat protein [1]: 18.3 nM
ACUUAUUGAGGAUAUACAUUGAUUAACAUGAGGAUCACCCAUGUACAAACAUGUAUUUAUGUAGAAGGCAGAAGAA [JR_Ex5_Sub067] (Eterna round: R97, puzzle: Exclusion 5) | 14.4 | 13.4 | 
